Columns and labels:
[1] = target: T1, anti-CD28 Fab (SEQ ID NOs: 202, 203); experiment: phage binding ELISA on captured biotinylated Fab;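 also: clonal phage supernatants added to wells preincubated with CD28 antigen or blocking buffer only, bound phage detected by ELISA with horseradish-conjugated anti-M13 antibody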
T1 construct: biotinylated and captured on neutravidin coated plates in the phage ELISA
Method: After panning, phage infected bacteria were plated out and colonies picked into 96 well blocks. Clonal phage was then amplified and separated from bacterial cells via centrifugation.
Clonal phage were harvested as crude supernatants and screened via standard ELISAs. […] Prior to the addition of clonal phage, wells were incubated with blocking buffer and CD28 antigen or blocking buffer alone. Without washing or aspirating, clonal phage supernatants were then added to the wells and incubated for a short time. Wells were then washed followed by detection of bound phage using a horse radish conjugated anti-M13 antibody. Clonal phage of interest were then sent for sequence analysis.

[2] = target: T2, Anti-CD28 Fab (SEQ ID NOs: 202, 203); experiment: phage ELISA on captured Fab, wells pre-incubated with CD28 antigen (competitor: CD28);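 also: bound clonal phage detected with an HRP-linked anti-M13 antibody, compared against wells that received blocking buffer alone without CD28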
T2 construct: biotinylated and captured on neutravidin coated plates in the phage ELISA
T2 sequence (VH, as listed by the source, chain 1 of 2): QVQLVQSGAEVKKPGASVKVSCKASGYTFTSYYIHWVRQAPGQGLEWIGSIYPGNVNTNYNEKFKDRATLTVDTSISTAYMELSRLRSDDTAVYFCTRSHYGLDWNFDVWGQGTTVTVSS
T2 sequence (VL, as listed by the source, chain 2 of 2): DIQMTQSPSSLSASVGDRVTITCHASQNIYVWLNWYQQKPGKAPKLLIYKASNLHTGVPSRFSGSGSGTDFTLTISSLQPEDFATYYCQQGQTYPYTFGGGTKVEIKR
Method: (§1) Clonal phage were harvested as crude supernatants and screened via standard ELISAs. […] Prior to the addition of clonal phage, wells were incubated with blocking buffer and CD28 antigen or blocking buffer alone. Without washing or aspirating, clonal phage supernatants were then added to the wells and incubated for a short time. Wells were then washed followed by detection of bound phage using a horse radish conjugated anti-M13 antibody.

[3] = target: T2, Anti-CD28 Fab (SEQ ID NOs: 202, 203); experiment: phage ELISA on captured biotinylated Fab;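 also: wells preblocked with or without CD28 antigen, then clonal phage supernatant added briefly, washed, and bound phage read out by ELISA using HRP-linked anti-M13 antibody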
Method: as §1

T1 sequence (VH, as listed by the source, chain 1 of 2): as the sequence (VH, as listed by the source, chain 1 of 2) above
T1 sequence (VL, as listed by the source, chain 2 of 2): as the sequence (VL, as listed by the source, chain 2 of 2) above

Binder	Anti-CD28 Fab (SEQ ID NOs: 202, 203) signal [1]	Anti-CD28 Fab signal in the presence of CD28 [2]	Anti-CD28 Fab signal [3]
TCAAGAMWAWPVCL [Phage-911]	2.32	–	–
TCAAGAMWHWPVCL [Phage-962]	2.03	–	–
TCAAGATYAWPECL [Phage-953]	2.08	–	–
TCAAGASYAWPWCL [Phage-960]	2.03	–	–
TCSAGATYEWPWCM [Phage-978]	1.97	–	–
MCAAGAHYTWPTCL [Phage-977]	1.97	–	–
TCSAGATYEWPRCL [Phage-899]	1.84	–	–
TCAAGAHYPWPACL [Phage-904]	1.92	–	–
HCAAGAHYPWPACL [Phage-968]	2	–	–
TCAAGAMYTWPLCF [Phage-943]	2.14	–	–
TCAAGANYPWPYCL [Phage-969]	1.99	–	–
YCDGHLPEYLPKCL [Phage-153]	–	0.09	2.19
YCDGHLPEYLSKCL [Phage-155]	–	0.07	2.19
TCSAGAYYTWPYCF [Phage-948]	2.09	–	–
TCAAGAHYTWPECF [Phage-972]	1.99	–	–
MCSAGANYPWPWCL [Phage-979]	1.97	–	–
SCSAGAMYTWPTCL [Phage-950]	2.09	–	–
SCAAGAMWPWPVCV [Phage-915]	2.29	–	–
MCAAGANYPWPQCL [Phage-920]	2.28	–	–
QCSAGAAWPWPFCL [Phage-976]	1.97	–	–
SCSAGAAYYWPWCL [Phage-901]	1.9	–	–

Binder	Anti-CD28 Fab (SEQ ID NOs: 202, 203) signal [1]	Anti-CD28 Fab signal in the presence of CD28 [2]	Anti-CD28 Fab signal [3]
YCDGHKAEYMDKCL [Phage-150]	–	0.07	2.2
TCAAGAHYLWPWCM [Phage-955]	2.05	–	–
TCAAGAHYSWPACF [Phage-923]	2.25	–	–
MCAEFFNYPWPLCL [Phage-946]	2.11	–	–
LCAEFFNYPWPLCL [Phage-975]	1.98	–	–
TCAAGATYEWPACL [Phage-947]	2.09	–	–
TCAAGATYKWPACL [Phage-958]	2.05	–	–
QCAAGASYPWPMCL [Phage-951]	2.08	–	–
LCSAGAMYPWPTCL [Phage-922]	2.25	–	–
LCSAGAMYSWPTCL [Phage-909]	2.39	–	–
MCSAGAMYPWPTCL [Phage-959]	2.04	–	–
LCSAGAMWPWPTCL [Phage-908]	2.39	–	–
SCAAGATYSWPMCL [Phage-974]	1.99	–	–
TCSAGATWTWPQCL [Phage-944]	2.14	–	–
SCAAVFSYSWPMCF [Phage-973]	1.99	–	–
RCAAGASYPWPPCL [Phage-925]	2.25	–	–
YCDGHAPEYMLKCL [Phage-151]	–	0.07	2.2
YCDGHAPDYMLKCL [Phage-152]	–	0.09	2.2
YCDGHMPEYMLKCL [Phage-199]	–	0.09	2.11
YCDGHMPEYMEKCL [Phage-292]	–	0.09	1.93
YCMGHAPEYMEKCL [Phage-290]	–	0.07	1.93

Binder	Anti-CD28 Fab (SEQ ID NOs: 202, 203) signal [1]	Anti-CD28 Fab signal in the presence of CD28 [2]	Anti-CD28 Fab signal [3]
YCDGHAPQYMLKCL [Phage-194]	–	0.09	2.12
YCDGHAPQYMGKCL [Phage-227]	–	0.08	2.06
LCEEFADYPWPMCL [Phage-965]	2.01	–	–
WCKPGAPYKWPPCF [Phage-942]	2.14	–	–
TCAAGATYSWPMCF [Phage-966]	2	–	–
TCAAGATYSWPWCF [Phage-971]	1.99	–	–
TCSAGATWSWPMCL [Phage-921]	2.26	–	–
TCSAGATWAWPLCF [Phage-902]	2.31	–	–
TCAAVFSYGWPECF [Phage-949]	2.09	–	–
SCKPGVANYWPWCL [Phage-917]	2.29	–	–
TCSAGATYVWPQCF [Phage-956]	2.05	–	–
MCSAGAMYKWPLCL [Phage-912]	2.32	–	–
MCSAGAMYSWPLCL [Phage-918]	2.29	–	–
TCSAGAHYPWPICL [Phage-900]	1.78	–	–
TCKAGATYLWPFCL [Phage-926]	2.23	–	–
TCSAGFHYEWPRCL [Phage-963]	2.02	–	–
TCSAGATYAWPFCL [Phage-913]	2.31	–	–
TCAAGATYPWPSCL [Phage-924]	2.25	–	–
GCAAGATYPWPSCL [Phage-957]	2.05	–	–
TCAAGATYLWPTCL [Phage-903]	1.68	–	–
TCSAGASWAWPWCF [Phage-961]	2.03	–	–

From patent US20260274955A1 (JANUX THERAPEUTICS, published 2026)
